What was measured:
[1] = molecular target: biotinylated N8~CRL1 with wild type RBX1 (UniProt Q15843); assay: BLI; CSN and N8~CRL1 in a saturating amount of CSN5i-3; who was immobilised not given
[2] = molecular target: biotinylated N8~CRL1 with wild type RBX1 (UniProt Q15843); assay: BLI; CSN and N8~CRL1 in a saturating amount of CSN5i-1a; who was immobilised not given

Substance: COP9 signalosome (CSN), eight-subunit complex, tag-free (from UniProt Q13098 1-491; P61201 1-443; Q9UNS2 1-409; Q9BT78 1-406; Q92905 1-334; Q7L5N1 1-327; Q9H9Q2 1-239; Q99627 1-209)
- KD with CSN5i-3 [1]: 0.026 µM
- KD with CSN5i-1a [2]: 1.8 µM

From paper doi:10.1101/2025.11.26.690573
